Measured values as given in patent publication US20150353911.

Target: FVII-186, P08709
Sequence (P08709 whole entry, looked up): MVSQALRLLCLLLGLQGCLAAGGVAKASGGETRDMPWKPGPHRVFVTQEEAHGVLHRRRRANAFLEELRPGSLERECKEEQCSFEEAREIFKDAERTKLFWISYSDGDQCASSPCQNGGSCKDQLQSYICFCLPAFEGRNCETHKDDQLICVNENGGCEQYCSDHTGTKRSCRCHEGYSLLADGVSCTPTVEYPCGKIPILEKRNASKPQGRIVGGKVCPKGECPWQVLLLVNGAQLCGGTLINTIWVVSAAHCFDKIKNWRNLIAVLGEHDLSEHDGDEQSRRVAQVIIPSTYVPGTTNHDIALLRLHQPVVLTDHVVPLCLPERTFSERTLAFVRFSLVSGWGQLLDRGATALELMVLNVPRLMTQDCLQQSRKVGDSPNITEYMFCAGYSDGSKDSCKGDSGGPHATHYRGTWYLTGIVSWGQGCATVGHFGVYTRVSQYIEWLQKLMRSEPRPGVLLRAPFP

B1: SUMO protease (Invitrogen Cat. No. 12588-018) (protein)
chain: LVPELNEKDDDQVQKALASRENTQLMNRDNIEITVRDFKTLAPRRWLNDTIIEFFMKYIEKSTPNTVAFNSFFYTNLSERGYQGVRRWMKRKKTQIDKLDKIFTPINLNQSHWALGIIDLKKKTIGYVDSLSNGPNAMSFAILTDLQKYVMEESKHTIGEDFDLIHLDCPQQPNGYDCGIYVCMNTLYGSADAPLDFDYKDAIRMRRFIAHLILTDALK
- cleavage of SUMO from FVII-186 (reducing SDS-PAGE): showed almost complete conversion of FVII-186 to the desired FVIIHC
